Results from patent publication US20230212319A1, “NOVEL ANTIGEN BINDING DOMAINS AND SYNTHETIC ANTIGEN RECEPTORS INCORPORATING THE SAME” (University of Southern California, priority 2020, published 2023).

B1: 22044 (protein)
chain: MALPVTALLLPLALLLHAARPQLQLQESGPGLVKPSETLSLTCTVSGDSISSGDYYWGWIRQPPGKGLEWIGHIYYSGVTYYNPSLKSRVTISVDTSRNQFSLKLSSVTAADTAVYYCTREDSSNWRSRGQGTLVTVSSLEGSMDPKDNCSKDANDTLLLQLTNTSAYYMYLLLLLKSVVYFAIITCCLLRRTAFCCNGEKSRAKRSGSGATNFSLLKQAGDVEENPGPTSMDWIWRILFLVGAATGAHSFEVQLVESGGGVVQPGRSLRLSCAASGFSFSGYGMHWVRQAPGKGLEWVAYISYDGSNKYYADSVKGRFTISRDNSKNTLYLQMNSLRAEDTAVYYCAKDPAWGLRLGESSSYDFDIWGQGTMVTVSSTRDKTHTCPPCPAIPEDTFFPSPESSCDVKLVEKSFETDTNLNFQNLSVIGFRILLLKVAGFNLLMTLRLWSSRAKRSGSGVKQTLNFDLLKLAGDVESNPGPSRGHMTEYKPTVRLATRDDVPRAVRTLAAAFADYPATRHTVDPDRHIERVTELQELFLTRVGLDIGKVWVADDGAAVAVWTTPESVEAGAVFAEIGPRMAELSGSRLAAQQQMEGLLAPHRPKEPAWFLATVGVSPDHQGKGLGSAVVLPGVEAAERAGVPAFLETSAPRNLPFYERLGFTVTADVEVPEGPRTWCMTRKPGA
B2: 22045 (protein)
chain: MALPVTALLLPLALLLHAARPQLQLQESGPGLVKPSETLSLTCTVSGDSISSGDYYWGWIRQPPGKGLEWIGHIYYSGVTYYNPSLKSRVTISVDTSRNQFSLKLSSVTAADTAVYYCTREDSSNWRSRGQGTLVTVSSLEGSPIKTDVITMDPKDNCSKDANDTLLLQLTNTSAYYMYLLLLLKSVVYFAIITCCLLRRTAFCCNGEKSRAKRSGSGATNFSLLKQAGDVEENPGPTSMDWIWRILFLVGAATGAHSFEVQLVESGGGVVQPGRSLRLSCAASGFSFSGYGMHWVRQAPGKGLEWVAYISYDGSNKYYADSVKGRFTISRDNSKNTLYLQMNSLRAEDTAVYYCAKDPAWGLRLGESSSYDFDIWGQGTMVTVSSTRDKTHTCPPCPAIPEDTFFPSPESSCDVKLVEKSFETDTNLNFQNLSVIGFRILLLKVAGFNLLMTLRLWSSRAKRSGSGVKQTLNFDLLKLAGDVESNPGPSRGHMTEYKPTVRLATRDDVPRAVRTLAAAFADYPATRHTVDPDRHIERVTELQELFLTRVGLDIGKVWVADDGAAVAVWTTPESVEAGAVFAEIGPRMAELSGSRLAAQQQMEGLLAPHRPKEPAWFLATVGVSPDHQGKGLGSAVVLPGVEAAERAGVPAFLETSAPRNLPFYERLGFTVTADVEVPEGPRTWCMTRKPGA
B3: SEQ ID NO: 22289: NKG2D-YA fused directly to TCRb constant chain without an Ig linker (protein)
chain: MALPVTALLLPLALLLHAARPACLFNQEVQIPLTESYCGPCPKNWICYKNNCYQFFDESKNWYESQASCMSQNASLLKVYSKEDQDLLKLVKSAHWMGLVHIPTNGSWQWEDGSILSPNLLTIIEMQKGDCALYASSFKGYIENCSTPNTYICMQRTVLEDLKNVFPPEVAVFEPSEAEISHTQKATLVCLATGFYPDHVELSWWVNGKEVHSGVCTDPQPLKEQPALNDSRYCLSSRLRVSATFWQNPRNHFRCQVQFYGLSENDEWTQDRAKPVTQIVSAEAWGRADCGFTSESYQQGVLSATILYEILLGKATLYAVLVSALVLMAMVKRKDSRGRAKRSGSGATNFSLLKQAGDVEENPGPTSMDWIWRILFLVGAATGAHSFEDLFNQEVQIPLTESYCGPCPKNWICYKNNCYQFFDESKNWYESQASCMSQNASLLKVYSKEDQDLLKLVKSAHWMGLVHIPTNGSWQWEDGSILSPNLLTIIEMQKGDCALYASSFKGFIENCSTPNTYICMQRTVTRIQNPDPAVYQLRDSKSSDKSVCLFTDFDSQTNVSQSKDSDVYITDKCVLDMRSMDFKSNSAVAWSNKSDFACANAFNNSIIPEDTFFPSPESSCDVKLVEKSFETDTNLNFQNLSVIGFRILLLKVAGFNLLMTLRLWSSRAKRSGSGVKQTLNFDLLKLAGDVESNPGPSRGHMTEYKPTVRLATRDDVPRAVRTLAAAFADYPATRHTVDPDRHIERVTELQELFLTRVGLDIGKVWVADDGAAVAVWTTPESVEAGAVFAEIGPRMAELSGSRLAAQQQMEGLLAPHRPKEPAWFLATVGVSPDHQGKGLGSAVVLPGVEAAERAGVPAFLETSAPRNLPFYERLGFTVTADVEVPEGPRTWCMTRKPGA
B4: 22042 (protein)
chain: MALPVTALLLPLALLLHAARPQLQLQESGPGLVKPSETLSLTCTVSGDSISSGDYYWGWIRQPPGKGLEWIGHIYYSGVTYYNPSLKSRVTISVDTSRNQFSLKLSSVTAADTAVYYCTREDSSNWRSRGQGTLVTVSSLEGSADCGFTSESYQQGVLSATILYEILLGKATLYAVLVSALVLMAMVKRKDSRGRAKRSGSGATNFSLLKQAGDVEENPGPTSMDWIWRILFLVGAATGAHSFEVQLVESGGGVVQPGRSLRLSCAASGFSFSGYGMHWVRQAPGKGLEWVAYISYDGSNKYYADSVKGRFTISRDNSKNTLYLQMNSLRAEDTAVYYCAKDPAWGLRLGESSSYDFDIWGQGTMVTVSSTRDKTHTCPPCPAIPEDTFFPSPESSCDVKLVEKSFETDTNLNFQNLSVIGFRILLLKVAGFNLLMTLRLWSSRAKRSGSGVKQTLNFDLLKLAGDVESNPGPSRGHMTEYKPTVRLATRDDVPRAVRTLAAAFADYPATRHTVDPDRHIERVTELQELFLTRVGLDIGKVWVADDGAAVAVWTTPESVEAGAVFAEIGPRMAELSGSRLAAQQQMEGLLAPHRPKEPAWFLATVGVSPDHQGKGLGSAVVLPGVEAAERAGVPAFLETSAPRNLPFYERLGFTVTADVEVPEGPRTWCMTRKPGA
B5: 22053 (protein)
chain: MALPVTALLLPLALLLHAARPQLQLQESGPGLVKPSETLSLTCTVSGDSISSGDYYWGWIRQPPGKGLEWIGHIYYSGVTYYNPSLKSRVTISVDTSRNQFSLKLSSVTAADTAVYYCTREDSSNWRSRGQGTLVTVSSLEDKTHTCPPCPAPIKTDVITMDPKDNCSKDANDTLLLQLTNTSAYYMYLLLLLKSVVYFAIITCCLLRRTAFCCNGEKSRAKRSGSGATNFSLLKQAGDVEENPGPTSMDWIWRILFLVGAATGAHSFEVQLVESGGGVVQPGRSLRLSCAASGFSFSGYGMHWVRQAPGKGLEWVAYISYDGSNKYYADSVKGRFTISRDNSKNTLYLQMNSLRAEDTAVYYCAKDPAWGLRLGESSSYDFDIWGQGTMVTVSSTRDKTHTCPPCPAIPEDTFFPSPESSCDVKLVEKSFETDTNLNFQNLSVIGFRILLLKVAGFNLLMTLRLWSSRAKRSGSGVKQTLNFDLLKLAGDVESNPGPSRGHMTEYKPTVRLATRDDVPRAVRTLAAAFADYPATRHTVDPDRHIERVTELQELFLTRVGLDIGKVWVADDGAAVAVWTTPESVEAGAVFAEIGPRMAELSGSRLAAQQQMEGLLAPHRPKEPAWFLATVGVSPDHQGKGLGSAVVLPGVEAAERAGVPAFLETSAPRNLPFYERLGFTVTADVEVPEGPRTWCMTRKPGA

System: LNCaP cells
Assay: JNG assay, co-culture with LNCaP cells
Assay type: cell-based
Conditions: for NFAT-GFP ASSAY: LNCaP: co-culture with LNCaP
Description: Cellular supernatant is collected and assayed for the induction of cytokines (e.g., IL2).
JNG (Jurkat cells expressing EGFP under an NFAT promoter) were infected with lentiviral vectors encoding different single chain and multi-chain SARs by spinfection in the presence of 8 µg/ml of Polybrene® (Sigma, Catalog no. H9268). The Jurkat-NFAT-GFP cells are engineered in such a way that the IL-2 promoter, which carries NFAT binding sites, is cloned upstream of the GFP gene. These cells have been used to study signaling via TCR and CAR. The different SARs were stably expressed in Jurkat NFAT-GFP cells by lentiviral mediated gene transfer, followed by selection with puromycin or blasticidin. No drug selection was used in case the construct lacked an antibiotic resistance gene. The SAR-expressing Jurkat-NFAT-GFP cells were cocultured with the target cells at E:T ratio of approximately 1:2 for approximately 4 hours to 18 hours. When the interaction between SIRs and their target antigen results in activation of the NFAT pathway, GFP expression is induced. […] GFP expression was monitored by FACS analysis. The Jurkat-NFAT-GFP (parental) cells were used as control. The structure of different constructs can be determined based on their names. For example, the construct CD8SP-CD19-hu-mROO5-1-vL-[hTCRa-C SDVP]-F-F2A-Spe-IgHSP-Apa-CD20-vHH-2HCD25-G4S-CDl9-hu-mROO5-1-vH-Mlu-[hTCRb-KACIAH]-F-P2A-PAC has the following modules from 5′ to 3′ direction: a CD8 signal peptide (CD8SP), the CD19 targeting hu-mROO5-1 vL fragment (CD19-hu-mROO5-1), Xho1 cloning site, human TCRa constant chain containing CSDVP mutations (hTCRa-CSDVP), Furine cleavage site (F), F2A ribosomal skip sequence (F2A), SpeI site, human IgH signal peptide (IgHSP), Apa I restriction enzyme site, camelid CD20-2HCD25-VHH module targeting CD20, BamHI restriction enzyme site, Glycinex4-serine linker (G4S), BstI restriction enzyme site, CD19-hu-mROO5-1-vH fragment targeting CD19, Mlu I restriction enzyme site, human TCRb constant chain containing KACIAH mutations ([hTCRb-KACIAH]), Furine cleavage site (F), P2A ribosomal skip sequence and Puromycin resistance gene (PAC). The sequence of the other constructs in the table can be similarly determined from their names and by referring to the different Tables of this disclosure that provide the names and SEQ ID NO of the different modules. Alternatively, the composition and modular architecture of the different SAR constructs can be determined from their sequences by bioinformatics tools, including using nucleic acid and amino acids homology searches. A SAR is considered positive in the assay in case the SAR expressing Jurkat-NFAT-GFP cells show greater % GFP positive cells when cultured with the target cell line as compared to parental Jurkat-NFAT-GFP cells. The signs +/-, +, 2+ etc. after the name of the cell lines indicate the relative degree of positivity on the Jurkat-NFAT-GFP assay as measured by the % GFP positive cells after culture of the SAR expressing Jurkat-NFAT-GFP cells with that cell line above the % GFP cells observed in parental Jurkat NFAT-GFP cells serving as controls. In general, the number +/-, +, 2+, 3+, 4+, 5+ refer to approximately 5%, 10%, 20%, 30%, 40% and 50% GFP positive cells. The % of GFP induction in the above assay is dependent not only the relative strength of the SAR but also, among other factors, on the relative level of expression of the SAR in the JNG cells and the relative level of expression of the target antigen in the target cell line. To control for the difference in gene transduction efficiency of the different SAR constructs, the experiment was conducted with JNG cells transduced with SAR constructs co-expressing a drug resistance gene (e.g., puromycin or PAC) followed by drug selection to generate a stable population of SAR-expressing cells. […]

Molecule	NFAT-GFP ASSAY: LNCaP	GFP induction (LNCaP cells, only in the presence of SAR-adaptor PSMA-USC76-chVH-G4S-ULBP2-S3 (SEQ ID NO: 23114))
B1	+/- (refer to approximately 5%, 10%, 20%, 30%, 40% and 50% GFP positive cells)	
B2	+/- (refer to approximately 5%, 10%, 20%, 30%, 40% and 50% GFP positive cells)	
B3		failed to show GFP induction
B4	+/- (refer to approximately 5%, 10%, 20%, 30%, 40% and 50% GFP positive cells)	
B5	+ (refer to approximately 5%, 10%, 20%, 30%, 40% and 50% GFP positive cells)	
